# Data from patent US20230381281A1, “PHARMACEUTICAL COMPOSITION COMPRISING GLUCAGON/GLP-1/GIP TRIPLE AGONIST OR LONG-ACTING CONJUGATE THEREOF FOR PREVENTING OR TREATING LUPUS-RELATED DISEASES” (HANMI PHARM. CO., LTD., priority 2020, published 2023).
# Bridge positions count the residues as written; N and C are the ends. Square brackets hold non-standard residues; d marks the D form. Ends that are not written are not given here. * marks the point of attachment. Acetyl(2-(4-imidazolyl)) = O=C(Cc1c[nH]cn1)*; Aib = CC(C)(N)C(=O)O
# T1: human GIP receptor (human, UniProt P48546 22-466)
# T1 sequence (looked up): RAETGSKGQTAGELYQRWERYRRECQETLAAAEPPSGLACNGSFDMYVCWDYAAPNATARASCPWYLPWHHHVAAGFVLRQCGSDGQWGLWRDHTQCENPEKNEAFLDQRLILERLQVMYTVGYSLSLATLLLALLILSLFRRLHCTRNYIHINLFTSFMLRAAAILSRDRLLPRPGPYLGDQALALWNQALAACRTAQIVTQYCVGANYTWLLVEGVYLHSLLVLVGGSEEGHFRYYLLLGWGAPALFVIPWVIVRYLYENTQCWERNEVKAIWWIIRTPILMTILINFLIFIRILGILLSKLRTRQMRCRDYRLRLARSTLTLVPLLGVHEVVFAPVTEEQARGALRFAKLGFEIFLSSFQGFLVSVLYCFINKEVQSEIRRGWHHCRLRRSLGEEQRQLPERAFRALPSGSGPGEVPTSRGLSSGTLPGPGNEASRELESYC
# Experiments:
# Experiment in all cases: cell-based or functional assay
# [1] = target: human GCG receptor (human, UniProt P47871 26-477)
# [2] = target: T1, human GIP receptor
# [3] = target: human GLP-1 receptor (human, UniProt P43220 24-463)
# Chain of human GCG receptor (P47871 26-477): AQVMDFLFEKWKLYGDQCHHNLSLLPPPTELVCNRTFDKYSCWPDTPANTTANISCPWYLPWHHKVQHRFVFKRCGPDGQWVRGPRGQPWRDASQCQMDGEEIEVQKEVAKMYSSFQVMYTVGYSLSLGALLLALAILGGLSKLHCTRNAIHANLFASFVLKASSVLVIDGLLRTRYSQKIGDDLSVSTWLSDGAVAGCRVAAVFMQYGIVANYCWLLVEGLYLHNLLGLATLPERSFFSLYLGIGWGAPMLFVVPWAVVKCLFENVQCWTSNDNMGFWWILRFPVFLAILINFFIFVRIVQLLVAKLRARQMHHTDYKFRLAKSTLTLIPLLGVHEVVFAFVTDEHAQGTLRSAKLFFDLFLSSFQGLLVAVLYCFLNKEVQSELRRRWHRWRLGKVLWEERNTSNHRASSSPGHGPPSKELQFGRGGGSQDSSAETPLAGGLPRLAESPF
Binder,In vitro activity compared to native peptide (%) vs Glucagon [1],In vitro activity compared to native peptide (%) vs GIP [2],In vitro activity compared to native peptide (%) vs GLP-1 [3]
H[Aib]QGTFTSDYSKYLDEKRQKEFVQWLLNTKC (bridge 16-20) [Triple agonist of SEQ ID NO: 58],2.6%,0.2%,39.1%
Y[Aib]QGTFTSDYSKYLDEKRAKEFVQWLLDHHCSSGQPPPS (bridge 16-20) [Triple agonist of SEQ ID NO: 43],88.4%,3.7%,12.6%
H[Aib]QGTFTSDYSIAMDEIHQKDFVNWLLAQC (bridge 16-20) [Triple agonist of SEQ ID NO: 55],0.7%,2.4%,27.1%
H[Aib]QGTFTSDKSKYLDERACQDFVQWLLDGGPSSGAPPPS [Triple agonist of SEQ ID NO: 40],< 0.1%,< 0.1%,75.2%
H[Aib]QGTFTSDYSIAMDEIHQKDFVNWLLNTC (bridge 16-20) [Triple agonist of SEQ ID NO: 57],< 0.1%,0.3%,11.7%
Y[Aib]QGTFTSDYSKYLDEKRAKEFVQWLLDHHPSSGQPPPSC (bridge 16-20) [Triple agonist of SEQ ID NO: 42],206%,7.8%,33.9%
H[Aib]QGTFTSDYSIAMDEIHQKDFVNWLLNTKC (bridge 16-20) [Triple agonist of SEQ ID NO: 35],< 0.1%,1.3%,7.5%
H[Aib]QGTFTSDYSKYLDEKRQKEFVQWLLNTC (bridge 16-20) [Triple agonist of SEQ ID NO: 51],2%,0.1%,14.4%
H[Aib]QGTFTSDYSKYLDGQHAQCFVAWLLAGGGPSSGAPPPS [Triple agonist of SEQ ID NO: 39],0.53%,< 0.1%,13.9%
H[Aib]QGTFTSDYSKYLDEKRQKEFVNWLLAQKC (bridge 16-20) [Triple agonist of SEQ ID NO: 34],0.92%,0.6%,19.1%
H[Aib]EGTFTSDYSIAMDEIHQKDFVDWLLAEC (bridge 16-20) [Triple agonist of SEQ ID NO: 54],1.4%,0.1%,30.6%
{Acetyl(2-(4-imidazolyl))}-[Aib]QGTFTSDYSICMDEKHQKDFVNWLLNTK (bridge 15-19) [Triple agonist of SEQ ID NO: 59],< 0.1%,4%,40.3%
{Acetyl(2-(4-imidazolyl))}-[Aib]QGTFTSDYSIAMDEKHCKDFVNWLLNTK (bridge 15-19) [Triple agonist of SEQ ID NO: 60],< 0.1%,18.2%,106%
H[Aib]QGTFTSDYSKYLDEKRAKEFVQWLLDHHPSSGQPPPSC (bridge 16-20) [Triple agonist of SEQ ID NO: 50],50.5%,2.7%,67.4%
H[Aib]QGTFTSDVSSYLDGQAAKEFIAWLVKGC [Triple agonist of SEQ ID NO: 1],< 0.1%,< 0.1%,3.2%
{Acetyl(2-(4-imidazolyl))}-[Aib]QGTFTSDYSICMDEIHQKDFVNWLLNTK (bridge 15-19) [Triple agonist of SEQ ID NO: 49],< 0.1%,3.3%,29.8%

Binder,In vitro activity compared to native peptide (%) vs Glucagon [1],In vitro activity compared to native peptide (%) vs GIP [2],In vitro activity compared to native peptide (%) vs GLP-1 [3]
H[Aib]QGTFTSDVSSYLDGQAAKEFVAWLLKGC [Triple agonist of SEQ ID NO: 6],< 0.1%,< 0.1%,17%
H[Aib]QGTFTSDYSKYLDEKRQKEFVQWLLDTC (bridge 16-20) [Triple agonist of SEQ ID NO: 52],7.5%,0.3%,44.1%
H[Aib]EGTFTSDYSIAMDEIHQKDFVNWLLAQC (bridge 16-20) [Triple agonist of SEQ ID NO: 53],8.4%,1.3%,161%
"H[Aib]QGTFTSDYSKYLDEKRQKEFVNWLLAQC (bridge (positions not given here); also: ring formation between underlined amino acids, places not given here) [Triple agonist of SEQ ID NO: 56]",4.9%,0.8%,57.9%
H[Aib]QGTFTSDYSKYLCEKRQKEFVQWLLNGGPSSGAPPPSG (bridge 16-20) [Triple agonist of SEQ ID NO: 36],0.39%,0.2%,37.4%
H[Aib]QGTFTSDVSSYLLGQQQKEFIAWLVKGGGPSSGAPPPSC [Triple agonist of SEQ ID NO: 5],< 0.1%,< 0.1%,42.1%
HGQGTFTSDCSKQLDGQAAQEFVAWLLAGGPSSGAPPPS [Triple agonist of SEQ ID NO: 44],< 0.1%,< 0.1%,1.3%
HGQGTFTSDCSKYLDEQHAQEFVAWLLAGGPSSGAPPPS [Triple agonist of SEQ ID NO: 46],< 0.1%,< 0.1%,1.4%
HGQGTFTSDCSKYMDGQAAQDFVAWLLAGGPSSGAPPPS [Triple agonist of SEQ ID NO: 45],< 0.1%,< 0.1%,6.6%
HGQGTFTSDCSKYLDGQRAQEFVAWLLAGGPSSGAPPPS [Triple agonist of SEQ ID NO: 47],< 0.1%,< 0.1%,2.4%
HGQGTFTSDCSKYLDGQRAQDFVNWLLAGGPSSGAPPPS [Triple agonist of SEQ ID NO: 48],< 0.1%,< 0.1%,1.5%
H[Aib]QGTFTSDYSKYLDECRQKEFVQWLLNGGPSSGAPPPSG (bridge 16-20) [Triple agonist of SEQ ID NO: 37],6.21%,2.2%,236%
{Acetyl(2-(4-imidazolyl))}-[Aib]QGTFTSDKSSYLDERAAQDFVQWLLDGGPSSGAPPPSS [Triple agonist of SEQ ID NO: 38],,,2.3%
H[Aib]QGTFTSDVSSYLLGQQQKEFIAWLVKGC [Triple agonist of SEQ ID NO: 4],< 0.1%,< 0.1%,8.5%
H[Aib]QGTFTSDKSKYLDECAAQDFVQWLLDGGPSSGAPPPS [Triple agonist of SEQ ID NO: 41],< 0.1%,< 0.1%,34.3%
